The source of these data is US20050084876A1 (APOXIS SA FORMERLY APOTECH RESEARCH AND DEVELOPMENT LTD A …, published 2005).

The chains are these.
B3: adaptor protein FADD (human) (other, UniProt Q13158 1-208, looked up)
chain: MDPFLVLLHSVSSSLSSSELTELKFLCLGRVGKRKLERVQSGLDLFSMLLEQNDLEPGHTELLRELLASLRRHDLLRRVDDFEAGAAAGAAPGEEDLCAAFNVICDNVGKDWRRLARQLKVSDTKIDSIEDRYPRNLTERVRESLRIWKNTEKENATVAHLVGALRSCQMNLVADLVQEVQQARDLQNRSGAMSPMSWNSDASTSEAS
notes: also called CAP1

The target of experiment [1] is T1, Flag-marked FLIPP (caspase-homologous C-terminal protein segment of human FLIPL) (human, UniProt O15519 233-480).
T1 construct: also called caspase-homologous protein segment of FLIPL
T1 sequence (O15519 other isoform, or with tags, fused parts or gaps limits assumed): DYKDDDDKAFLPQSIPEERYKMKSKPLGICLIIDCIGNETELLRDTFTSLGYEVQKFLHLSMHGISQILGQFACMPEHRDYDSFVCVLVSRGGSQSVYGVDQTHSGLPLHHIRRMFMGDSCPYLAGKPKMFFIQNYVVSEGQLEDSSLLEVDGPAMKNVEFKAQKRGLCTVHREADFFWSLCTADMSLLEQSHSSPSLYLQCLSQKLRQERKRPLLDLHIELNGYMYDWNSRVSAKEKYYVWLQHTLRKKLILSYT
In words: anti-Flag immune precipitation, anti-myc Western blot, co-transfected 293T cells (with FADD). Background: A western blot detects proteins with antibodies after separation by electrophoresis.

For experiment [2], the target named is T2, CD95 (APO-1/Fas) death receptor of human Raji B cells, stimulated with agonistic anti-APO-1 antibody (human, UniProt P25445 26-335).
T2 construct: whole, on cells; also called CD95 death receptor; CD95 receptor complex
T2 sequence: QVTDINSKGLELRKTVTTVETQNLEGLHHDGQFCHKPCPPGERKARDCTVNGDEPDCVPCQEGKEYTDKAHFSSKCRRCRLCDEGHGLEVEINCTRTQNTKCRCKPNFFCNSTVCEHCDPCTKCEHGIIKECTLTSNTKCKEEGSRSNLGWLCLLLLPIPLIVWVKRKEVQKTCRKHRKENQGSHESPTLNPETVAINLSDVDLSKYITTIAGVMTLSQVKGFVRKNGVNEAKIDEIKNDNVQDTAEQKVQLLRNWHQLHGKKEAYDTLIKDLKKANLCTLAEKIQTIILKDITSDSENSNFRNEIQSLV
In words: anti-CD95 (APO-1) immune precipitation from Raji clones, gels.

Experiment [3] addresses B3. Kind of experiment: anti-Flag immune precipitation, anti-FADD Western blot, 293T cells.
In experiment [4] the target is T1, Flag-marked FLIPP (caspase-homologous …). Kind of experiment: anti-Flag immune precipitation, anti-FADD Western blot, co-transfected 293T cells.
The target in experiment [5] is T3, Flag-marked 159L protein (viral FLIP, ORF 159L of molluscum contagiosum virus, MCV) (molluscum contagiosum virus (MCV), UniProt Q98325 1-241).
T3 construct: also called Flag-159L; 159L-FLIP (MCV)
T3 sequence: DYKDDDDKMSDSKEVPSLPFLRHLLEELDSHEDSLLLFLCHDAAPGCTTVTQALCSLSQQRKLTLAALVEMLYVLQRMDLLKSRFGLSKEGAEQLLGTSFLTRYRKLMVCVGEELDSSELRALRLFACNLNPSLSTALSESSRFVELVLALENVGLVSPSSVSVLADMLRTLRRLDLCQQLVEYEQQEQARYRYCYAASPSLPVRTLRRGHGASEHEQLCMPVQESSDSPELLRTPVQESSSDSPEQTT
In words: co-transfection in 293T cells, anti-Flag immune precipitation, anti-FADD Western blot.

B1: myc-marked cytoplasmic protein segment of the CD95 (Fas) death receptor (receptor, murine, UniProt P25446 187-327, looked up, not shown: small tags and cut ends)
chain: RKYRKRKCWKRRQDDPESRTSSRETIPMNASNLSLSKYIPRIAEDMTIQEAKKFARENNIKEGKIDEIMHDSIQDTAEQKVQLLLCWYQSHGKSDAYQDLIKGLKKAECRRTLDKFQDMVQKDLGKSTPDTGNENEGQCLE
notes: range 166-306; also called myc-CD95; my-CD95
Consider B1, for which the binding result in experiment [1] is reported as “no binding”.

B2: Flag-marked E8 protein (viral FLIP, ORF E8 of equine herpes virus 2, EHV-2) (other, equine herpes virus 2 (EHV-2))
chain: DYKDDDDKMSHYSMIDTYFSLDEDETETYLYLCRDLLKNKGEFQCTRDAFKFLSDYACLSAANQMELLFRVGRLDLIRRIFGQTWTPDSCPRYYMPICSPFRCLMALVNDFLSDKEVEEMYFLCAPRLESHLEPGSKKSFLRLASLLEDLELLGGDKLTFLRHLLTTIGRADLVKNLQV
notes: mature; also called Flag-E8; E8 FLIP
As to B2, the binding result in experiment [2] and in experiment [3] was “binds” in each case.

On to B3, for which the binding result in experiment [4] is “no binding”; in experiment [5], “binds”.
